Here are results for one molecule from US20220196676A1 (NORDIC BIOSCIENCE A S, published 2022).

The target in experiment [1] is T1, elongated peptide SFSGYLLYPMA
T1 construct: Selection peptide with one more alanine at the C-terminus; synthetic (Chinese Peptide Company); also called elongated peptide (one additional amino acid)
T1 peptide: SFSGYLLYPMA
In words: C8-C competitive ELISA with HRP-labelled 13G5. As to the method: (§1) ELISA-plates used for the assay development were Streptavidin-coated from Roche (cat.: 11940279). All ELISA plates were analyzed with the ELISA reader from Molecular Devices, SpectraMax M, (CA, USA). We labelled the selected monoclonal antibody with horseradish peroxidase (HRP) using the Lightning link HRP labelling kit according to the instructions of the manufacturer (Innovabioscience, Babraham, Cambridge, UK). A 96-well streptavidin plate was coated with biotinylated synthetic peptide biotin-[…] (SEQ ID NO: 25) (Chinese Peptide Company, China) dissolved in assay buffer (50 mM Trizma, 0.46 mM Tween 20, 0.08 mM Phenol Red, 34 mM NaCl, 0.36% Bronidox L5, 1% BSA, pH 7.4) and incubated 30 minutes at 20° C. 20 μL of standard peptide or samples diluted in assay buffer were added to appropriate wells, followed by 100 μL of HRP conjugated monoclonal antibody 13G5, and incubated 20 hour at 4° C. Finally, 100 μL tetramethylbenzinidine (TMB) (Kem-En-Tec cat.4380H) was added and the plate was incubated 15 minutes at 20° C. in the dark. All the above incubation steps included shaking at 300 rpm. After each incubation step the plate was washed five times in washing buffer (20 mM Tris, 50 mM NaCl). The TMB reaction was stopped by adding 100 μL of stopping solution (1% H₂SO₄) and measured at 450 nm with 650 nm as the reference. […]
A general note: In an ELISA, binding on a coated surface is turned into a signal by an enzyme label.

Experiment [2] addresses T2, nonsense peptide YLSGPFMSYL
T2 construct: Control peptide of the C8-C specificity test; also called nonsense peptide (C8-C)
T2 peptide: YLSGPFMSYL
In words: C8-C competitive ELISA with HRP-labelled 13G5. How it is done:
as §1

B1: monoclonal antibody NB683-13G5 (antibody, mouse IgG1, kappa, V domains shown)
VH: EVLLQQSGPELEKPGASVKISCKASGYSLTDYNMNWVKQSDGKSLEWIGIIDPNYGDTNYNQKFKDKATLTVDKSSNTAHMQLKSLTSDDSAVYYCARSGYYGNSHYGLDYWGQGTSVTVSS
VL: QIVLTQSPAIMSASPGERVTMTCSVSSSVGYIHWYQQKSGTSPKRWISDTSKLASGVPSRFSGSGSGASYSLTIDRVEAEDAATYYCQQWSSNPPTFGGGTKLEMKR
notes: also called clone 13G5; monoclonal antibody 13G5
Consider B1, for which the binding result in experiment [1] and in experiment [2] was “no binding” throughout.
